# Data reported in article PMC3658131.
# Target: Bd-cys-S-fluorescein conjugate (Staphylococcus aureus)
# Experiment: ELISA
row,Substance,net absorbance at 405 nm (net absorbance (405 nm))
1,HRP-conjugated guinea pig IgG (antibody),0.91
2,HRP-conjugated rabbit IgG (antibody),1.13
